Measurements published in paper PMC3764444, “Involvement of A20 in the molecular switch that activates the non-canonical NF-кB pathway” (Scientific Reports, 2013).

Biological target: T1, recombinant cIAP1 protein (human, UniProt Q13490 1-618)
T1 construct: the whole cIAP1, human cDNA; cloned in pGEX-6P-1; also called released from GST-cIAP1 (GST-cIAP); source: E. coli DH5α, purified (Glutathione Sepharose 4B), released from the beads with 3C protease (Turbo3C)
Experiment: pull-down; GST pull-down: 2 μg polyubiquitin chains or 0.5 μg cIAP1 with 0.5 μg GST or GST-ZnF5-7 proteins and Glutathione Sepharose 4B in TNE buffer (20 mM Tris-HCl pH 7.5, 130 mM NaCl, 1% Triton X-100, 1 mM EDTA) with 0.5 mM DTT and 0.1 mg/ml BSA, 3 hr; immunoblot
Conditions: both partners purified

T1 sequence (Q13490 whole entry): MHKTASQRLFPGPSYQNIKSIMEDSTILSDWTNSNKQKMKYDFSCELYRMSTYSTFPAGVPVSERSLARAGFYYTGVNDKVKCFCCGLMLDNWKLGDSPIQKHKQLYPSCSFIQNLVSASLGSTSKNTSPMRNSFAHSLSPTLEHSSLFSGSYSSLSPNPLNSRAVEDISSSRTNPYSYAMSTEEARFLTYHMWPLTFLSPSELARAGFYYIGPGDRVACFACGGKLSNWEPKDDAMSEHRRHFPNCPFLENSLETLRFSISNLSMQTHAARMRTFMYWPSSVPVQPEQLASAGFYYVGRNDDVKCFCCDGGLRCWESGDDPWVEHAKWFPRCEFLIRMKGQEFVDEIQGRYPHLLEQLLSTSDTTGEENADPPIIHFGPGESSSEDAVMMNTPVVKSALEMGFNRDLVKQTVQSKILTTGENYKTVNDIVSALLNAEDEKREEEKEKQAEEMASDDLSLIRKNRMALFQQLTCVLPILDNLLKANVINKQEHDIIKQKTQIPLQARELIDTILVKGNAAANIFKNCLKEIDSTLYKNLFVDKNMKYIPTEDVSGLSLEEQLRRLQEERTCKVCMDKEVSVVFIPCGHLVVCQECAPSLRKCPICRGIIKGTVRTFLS

binding result: binds
B1: GST-A20-ZnF5-7 (domain or fragment, human, UniProt P21580 647-790, looked up)
chain: TASRFQNTIPCLGRECGTLGSTMFEGYCQKCFIEAQNQRFHEAKRTEEQLRSSQRRDVPRTTQSTSRPKCARASCKNILACRSEELCMECQHPNQRMGPGAHRGEPAPEDPPKQRCRAPACDHFGNAKCNGYCNECFQFKQMYG
notes: A20, human, fragment aa 647-790 encompassing ZnF5 to ZnF7; cloned in pGEX-6P-1; also called GST-ZnF5-7; source: E. coli DH5α, purified (Glutathione Sepharose 4B), dialyzed with PBS
